# Measured values from the DeepSol protein solubility set.
# Assay: soluble on expression in E. coli; label from the status in PepcDB or PDB records
row,Sequence,soluble on expression in E. coli
1,MGSDKIHHHHHHMNFTMNFPGLKDTFITKVEEVGEIVRLYVEMERKVHRCPKCQKRTKKVHDYRIQKIKHLKWFERQTQIFYKRRRYVCACGKRFAENNSFVERYQRTSIEWNQAVAIRAIKGKTFKETAENYGSSATTIVRRFDQISSSEIRPVEELPAIIAIDEYKGDTKEGKYQLIIADAVTKEPLDILPNRYKRTIKDYLRRHGSKVQMVIMDMSPSFKAAVQEALGRPVIIADRFHFCRYIYWALDGVRRRVQKDFHAYDRKKCKRMKHVFHKENSRLTEEERWYLDRYLKMSTELQKAYELKEAYQDWFKRSKEIGATQIERVKKELKAIYKLVKNSGIPEMCRAIGTFENWQTEILNSFAYGYSNGFLEGINNSTKVLKRNAFGFRSYERFRAKILLTHKYKRIGVHIG,not soluble
2,MGSDKIHHHHHHMNICDLAPAYIRAISPYQPGKPISELAREMGMDEQSIIKLASNENPLGTSPMALNAMSKALDEVSLYPDGSGFELKAALSERYGVTSDQIVLGNGSNDVLELAARVFLKPGASTVYSQHAFAVYPLVTKAVGGIGISVPARNYGHDLDAMLDAVAPETRVVFIANPNNPTGTLLPADDVLRFLERVSPDVLVVLDEAYNEYLPPALKGDSIAWLKQFPNLLITRTFSKAYGMAGVRVGFGLGHPDVAGLMNRVRQPFNVNNIGLAGAVAALQDEEFVKRSYALNQAGMLQIVTGLRQMGIEYIPSYGNFLSFRVPGNVKAINESLLKQGVIVRPISIYEMPEHLRVTVGLESENEKFLKSLAIALETTEGAAADTIPEMAVSFPKVASGGTA,not soluble
3,MGSDKIHHHHHHMNIEDTLLKQDVWRFIDNTTINPAFDAIQSFATDDTLCRSVGARMAPSTVRGWVHEKTVSLGIQDSKLPDIDKGIAFLQEQGYRVVVRNSGGLAVVLDSGVLNLSMVLPDAERGIAIERGYETMFTLIKDMFVDCNEVIEAKEIEDSYCPGSYDLSIQGEKFAGISQRRMAKGVAVQIYLAIDGDQTTRSELIRDFYTISGKAKQTKYTFPDVNPNVMGSLSDLMKNDISLNGTLVRLFNSLRHYAGELVSGTLTSEELDLFPAYYERLIARNDKVLT,not soluble
4,MGSDKIHHHHHHMNIFDILRDYLLVQVDKYNLNMDMISIVSKSLSSKEAIGNTKRKDFPIIVGKEIMLEADFKGAKGQAFTSTPSTFEGSLKDILSLDLHDNPHDRSLFIASLNAVMKYLGKTDRTIHCKNNEPEVCAKKFPEFIKMEFGNPKVAIIGYQPAIIDNIKDFFETRVLDLNPEFVDTIQYNVKIEDGIRDYEDVISWADLVICTGSTLCNNSIINFLSLNKPVYYYGTTIAGASNILGLKRLCFCSK,not soluble
5,MGSDKIHHHHHHMNIKDLKYFYHLSQLQSFTKVAEKFQISQPSVSYSVKRLEEQFNCDLIVKDPSHRTFALTQQGNILKRHLERILPEISSAQKEMNRSLAHYSTLGCPPIIINYLLSLLKETNQDLAFLKRIRSIRGGSVELLEQLLQGDLDLSLIGTIEPFYHDELVIKKILHRKLYLIVSKDHLLAKRKKAIAFADVLKENFILLDEHNIHLKAFDYLNQTHQNQAQIFFKSDDVTLIKQMVSHNMGVSLLTDISLTKQDHHLVKIPFKENNKLGFYVNYAYLKSSTLTPDIRHLVDLLDKIAQSF,not soluble
6,MGSDKIHHHHHHMNIKQLHYFLVVAEEKQITAAAKRLYIAQPPLSYQLKQLEKELGAQLFKRTAHGIELTDAGQTLQSYASEILSLAQNAKNQVHKTISGELGTVAMGIVSSSTGYMPIAAFKELTQFYPEINFDIYEDNTFGVLDKLEKKTIDMGIVRTPYNRTGLNAKTLTTEKMMAVTNDITLLHKKELRIEDLKDQPLIIYRRFEEMFNQTFAHHGIKPFYAMKCDDSRTAITWAKQNMGLALVPESIATTYAKNKMIAVKHVNWITHLQLVWRKDQIVTPLMKKIISLVK,not soluble
7,MGSDKIHHHHHHMNINPTEKLSQPIVEKVAIVGAGPGGLAAAIALRSQGIDVQIYEKAQEFRPAGTGLGLAPNGLNFLDAIAPGIVETLKGSGCEVHHTVLKNFRGETIRANASKYQEKYGQPLVTVWWYRLQQVLASRLPSDIVHLNHRCIGFEQDENGVEIRFDGEKSVYADLLIGADGVNSVIREILFGEGKPNYIGSMCWRAVIKYHHELFNDYELVFVKGNQQFMYLLNVGGGYMSWISRKFSPEYSLCHSADEVKSRILHELADWDESFQVVVQATPAEQIWEGPICDRPPLTHWSQGRVTLLGDAAHPMAPAMGQGANTTFEDAYELRECFSQSANLQEALTSYEQRRMQRTEIIQARSALGEMRYYESNTVASNGQREQTMSVNDDFHKWLYDYKPSATIKF,not soluble
8,MGSDKIHHHHHHMNKMKIAHLTSAHPRHDIRIFVKECSSLAAAGHEVTLIVADGQGEEIRNGVRIHDVGPKRGGRLARMTGTVKRVYQAALRLRPDVVHFHDPELIPAGVRLKQAGIKVVYDVHEDVPRQILAKHWIPGAVRPLVSGGFETLEDWAARRFDAIVTSTPHIRKRFERLGANALDVCNFPILEELVRDTPWESRRNEVCYIGGISRIRGIEPIVAALPDTSTRLNLAGPWSESDLRAKVTAEPGWARVNDLGVLDRKGVAEVLARSKIGLVTLFPTPNYVDALPIKLFEYMAAGMPVIASDFPVWREIVADAGCGVLVDPQDAAAIAAAINELLGDEERMRKLGESGKRAVLSKYSWAAEADKLVALYASL,not soluble
9,MGSDKIHHHHHHMNKVTINPQIQLTYQIEGKGDPIILLHGLDGNLAGFEDLQHQLASSYKVLTYDLRGHGKSSKSESYDLNDHVEDLKILMEKLNIHEAHILGHDLGGVVAKLFTDKYAYRVKSLTTIASKKDDLIHSFTQLLIQYQDDIAGFNKSEAYILLFSKLFRNQEKTMKWYQKQRIYSIKSEDDSAVAIRSLILHKDEPMYLKKRTCVPTLLINGEHDPLIKDKNHFKLEAHFLNVTKKIFEHSGHAPHIEEPEAFMNYYLNFLKSVS,not soluble
10,MGSDKIHHHHHHMNLKQLEYFMHVAELGSFSKAAMVLDVAQPALSRQVRGLETELRQQLFLRNGRGVALTEAGRRLFDHSVAIMQMVAHAREDLGASRDAPVGRVTIGLPPSIARQLTLPLIDHFKRTLPSARLAIVEGLSSHIIEWVTTGRADVGLVYNPDAQPGIEITPLLQEPLGLVSYAPPSKRRGAAAPLPFKELSKYPLIVPERVHAMRRLLENEAALAGVKLDIAWEVSSVPSIIELVCAGYGHAVLTRSGVAASPRAAELVMRPLIEPAPASALCLVVSATRRPTPLAQHSMRMLTDLVRTLPT,not soluble
11,MGSDKIHHHHHHMNLSMISASVTMGELQKKLDTLSHNIANSNTTGYKRREASFSDLLFQQVNTNKATQYETGRLTPNGIRVGSGAKVSQTALRMEQGTLTTTDRALDFAIANPSSFFEIETVVDGNPVTRLTRDGAFYLTANPNNDNLLQLVTQNGDYLLDSAGNRINIPATFEEITLTDQGTLQVTMPNGANVQAAQLQLIQVMKPQLLEAVGGNMFQLPDLAALGFAENEVYAAVGAGGGAVVQGTLEGSNVDIGREMTDLIETQRNYQFNARSVSMADQMMGLVNGLRR,not soluble
12,MGSDKIHHHHHHMNLTHRQLTMFRAIMLHGNLGRAADACASSQPTLSRELGRLEQLLGFNLFDRVRGRLRPTVRALALMQEVERSFIGLEQIAARASELRTQATGRLRIACLPALAHALVPRALVYLSHTHPELGVSVHPLESPWLEQAMSEQRFDLGLSETQKAPAGVTLQPLLKVNEVAVLPRDHSLCRKARLQPRDFTGERFISLAVGDPYRTAIDAMFEDAKVHRVTLLETTSSVAVCAMVRQGLGVAIVNPFTAMELSGPDLVVRSLTVAIGYQVNMLLPEIAAPHPLQSVLADTVRKASADLSHLDQCFY,not soluble
13,MGSDKIHHHHHHMNNPISDDYRNLLVEVKQRIRSAQYEALKAVNKELIALYWDIGKMIVTQQQEADWGKSVVEQLAKDLQTEFPGISGFSTRNMWNMRSFYIAYSQNEKLQPLVAEIGWTHNIVILEKCKDDLEREFYLRMTRKFGWTKNVLIHQIENQTYEKTLLNQTNFNQTVPAEIRNQLKLAVKDEYTFDFLELADEHSERQLEQAILARVEPFLQEMGGRFTFVGSQYRLEIGDQEFFIDLLLYHRQLKCLVAVELKTGEFLPEYVGKMQFYLAALDDLSRLPDENLSIGIILCKSKNKTIVEYALRESNKPIGVATYKVFSSLPQDLRNQLPAPEQVAKLLEGVE,not soluble
14,MGSDKIHHHHHHMNPLDLIAKRAYPYETEKRDKTYLALNENPFPFPEDLVDEVFRRLNSDALRIYYDSPDEELIEKILSYLDTDFLSKNNVSVGNGADEIIYVMMLMFDRSVFFPPTYSCYRIFAKAVGAKFLEVPLTKDLRIPEVNVGEGDVVFIPNPNNPTGHVFEREEIERILKTGAFVALDEAYYEFHGESYVDFLKKYENLAVIRTFSKAFSLAAQRVGYVVASEKFIDAYNRVRLPFNVSYVSQMFAKVALDHREIFEERTKFIVEERERMKSALREMGYRITDSRGNFVFVFMEKEEKERLLEHLRTKNVAVRSFREGVRITIGKREENDMILRELEVFK,soluble
15,MGSDKIHHHHHHMNPPPFRLFLAIRSLHKGGAERQMVELAKGLDKERFALTLCTLYGGGELERELKESGVEIFCLHKRGRSDFSFLRRYRTLIQEQNPKAIYSFLPEMNLFSLMASRFLKRSPKILWGFRSSDMDVKSYGWQSRLYYAAQKLLSPFASKIITNSHHSLAYHKHIGYCMKRAQVIHNGIDTKRFSPSLELRESFRQRYHLKDKIAIGIAARMDIAKGYPYLAKAAKIILSRYPKVLFFAAGEIDPLLQKECLEILGQEGERFIWLGGVERMEEVYNGWDILVSSSLTESFSNSIAEGMACALAPIATDVGDTSVILGEVGTLIPPKDSEMLAQKLALMIESDFKTEGERARERIVTLFSLEAMIQNSTKAILTCAES,not soluble
16,MGSDKIHHHHHHMNPQPSGATVDKGSVNPEQISIKTFGGLGLSYLNSPMTILWESQKARILFCYLLISYDQWLHRDKLIDMLWPGCDPVSGAKNFKTTLSRLRKSFMGPRSINPIMTLGEAIRLDFNIFSLDSSQFKGYAQTGIKMLARGDISGARRYLEAAQDEYSGEFLPEEPFDHHICAERAELERLHESVLTSLQKVYQLEGNNDAVEAISFLKAVHTNS,not soluble
17,MGSDKIHHHHHHMNQFHLTEDQQDCLQELINIAMGQASDQLARYLDTFVYLKVPSIESVEAKDLMKTLSQQKNTVAVVSQGFFGYEGIRGEALLVYKEENSGRIADLLGYEPDELSQDEQLIDISSILTTTFLNVFAQQINNQLSYNAPKLLPNVQEILSEHLQQMPFTWDLALKVNINYQVTDYSFNCNMILLIPETAITNIKHVLDRILEEF,not soluble
18,MGSDKIHHHHHHMNRAREINYLNSIALHQPFGIVGVSGETGIGKTTVLNFVNPEGVFTVRVNISLRDSMESILYDLLHSLALSLEKVEEVSDLAKEVRKWITDEVSTIKGFSLGVSFGVNASLTHEKSIRPRFNFFKAREKLGELIKQTVQRKGKFLLIIDELDKEKKEDVLRVIDSIKNFIIMEDFVVILSLPFSIYREYAADRLRWNEAGNLENIFTDIVFVEPLKKLEIKELIIKRLGSYIELIEDGVLDIVADFSDGNPRDGLWILTKAIYDNIHKELLSKEDLINTINRTISEYTGLTLNLTENQKKAIRVLRGSVYSREKIIETLQKEGFKRTTAYSVMDQLLQKRILLVEKEGYRISGKFSYMEI,not soluble
19,MGSDKIHHHHHHMNRLGKALPPLASLMPFEAAARLESFSRAADELHLTQAAISRQIRALEDDLGVALFERRNRGVFLTAAGREFGRTVSAALEGIAAQANALRQEVHDGVVVLFCQLCEAFYWVMPRLASLNRRHPELEVRLVTSTRPVVEHHDYFDVALQTSGRPSGSHALAFTASDEIFPICSPGYLAAQPRPITLASLPEHCLLHHEADPPDWFEWDSWLRAMGNFAPALGNGMVFDSYPLVLQAALAGHGIALGWRRSAEHLIQSGQLVRPLSMSLPLDNALSVYTRHGAQPRAETLALLDWLQREFRRDDQTTPA,not soluble
